Several values for one entry are separate records, joined by “and”; a condition that tells them apart may be missing. Equal entries are not always repeated.
Biological target: the molecule itself
Assay: crystal structure

B1: MEF2D_(2-95) (N-terminal residues 2-95 of human MEF2D) (domain or fragment, UniProt Q14814 2-95, looked up)
chain: GRKKIQIQRITDERNRQVTFTKRKFGLMKKAYELSVLCDCEIALIIFNHSNKLFQYASTDMDKVLLKYTEYNEPHESRTNADIIETLRKKGFNG
stoichiometry N: 2 and 4

From paper PMC9507012 (Blood, 2022)
